Measured values reported in US20200087400A1 (EUREKA THERAPEUTICS, published 2020).

Key:
Bio-P19 member A2E-1 = target: T1, Bio-P19 member A2E-1 (chain 2: C-terminal BirA substrate peptide (BSP), enzymatically biotinylated; its letters are not printed in the patent and it is left out); assay: phage ELISA, streptavidin plate, anti-M13-HRP
T1 construct: also called biotinylated control peptide A2E-1/HLA-A*02:01 monomer
Description: (§1) Individual phage clones from enriched phage display panning pools against PSA146/HLA-A*02:01 complex were incubated in the coated plates. Binding of the phage clones was detected by HRP-conjugated anti-M13 antibodies and developed using HRP substrate. The absorbance was read at 450 nm. […] Then, unique antibody clones were identified through DNA sequencing of ELISA-positive clones. […] T2 cells loaded with different peptides and β2M were first stained with purified scFv phage clones, followed by staining with a mouse anti-M13 mAb, and finally R-PE conjugated horse anti-mouse IgG from Vector Labs. Each step of the staining was performed for between 30-60 minutes on ice and the cells were washed twice between stainings. All 16 clones recognized PSA146-loaded T2 cells specifically. FIG. 3 provides examples of PSA146/HLA-A*02:01 specific phage clone binding to peptide-loaded T2 cells through FACS.

Bio-P19 member A2E-10 = target: T2, Bio-P19 member A2E-10 (chain 2: C-terminal BirA substrate peptide (BSP), enzymatically biotinylated; its letters are not printed in the patent and it is left out); assay: phage ELISA, streptavidin plate, anti-M13-HRP
T2 construct: also called biotinylated control peptide A2E-10/HLA-A*02:01 monomer
Description: as §1

Bio-P19 member A2E-11 = target: T3, Bio-P19 member A2E-11 (chain 2: C-terminal BirA substrate peptide (BSP), enzymatically biotinylated; its letters are not printed in the patent and it is left out); assay: phage ELISA, streptavidin plate, anti-M13-HRP
T3 construct: also called biotinylated control peptide A2E-11/HLA-A*02:01 monomer
Description: as §1

Bio-P19 member A2E-13 = target: T4, Bio-P19 member A2E-13 (chain 2: C-terminal BirA substrate peptide (BSP), enzymatically biotinylated; its letters are not printed in the patent and it is left out); assay: phage ELISA, streptavidin plate, anti-M13-HRP
T4 construct: also called biotinylated control peptide A2E-13/HLA-A*02:01 monomer
Description: as §1

Bio-P19 member A2E-14 = target: T5, Bio-P19 member A2E-14 (chain 2: C-terminal BirA substrate peptide (BSP), enzymatically biotinylated; its letters are not printed in the patent and it is left out); assay: phage ELISA, streptavidin plate, anti-M13-HRP
T5 construct: also called biotinylated control peptide A2E-14/HLA-A*02:01 monomer
Description: as §1

Bio-P19 member A2E-15 = target: T6, Bio-P19 member A2E-15 (chain 2: C-terminal BirA substrate peptide (BSP), enzymatically biotinylated; its letters are not printed in the patent and it is left out); assay: phage ELISA, streptavidin plate, anti-M13-HRP
T6 construct: also called biotinylated control peptide A2E-15/HLA-A*02:01 monomer
Description: as §1

Bio-P19 member A2E-16 = target: T7, Bio-P19 member A2E-16 (chain 2: C-terminal BirA substrate peptide (BSP), enzymatically biotinylated; its letters are not printed in the patent and it is left out); assay: phage ELISA, streptavidin plate, anti-M13-HRP
T7 construct: also called biotinylated control peptide A2E-16/HLA-A*02:01 monomer
Description: as §1

Bio-P19 member A2E-17 = target: T8, Bio-P19 member A2E-17 (chain 2: C-terminal BirA substrate peptide (BSP), enzymatically biotinylated; its letters are not printed in the patent and it is left out); assay: phage ELISA, streptavidin plate, anti-M13-HRP
T8 construct: also called biotinylated control peptide A2E-17/HLA-A*02:01 monomer
Description: as §1

Bio-P19 member A2E-19 = target: T9, Bio-P19 member A2E-19 (chain 2 carries a C-terminal BirA substrate peptide (BSP), enzymatically biotinylated; the BSP letters are not given in the patent and are left out); assay: phage ELISA, streptavidin plate, anti-M13-HRP
T9 construct: also called biotinylated control peptide A2E-19/HLA-A*02:01 monomer
Description: as §1

Bio-P19 member A2E-21 = target: T10, Bio-P19 member A2E-21 (chain 2 carries a C-terminal BirA substrate peptide (BSP), enzymatically biotinylated; the BSP letters are not given in the patent and are left out); assay: phage ELISA, streptavidin plate, anti-M13-HRP
T10 construct: also called biotinylated control peptide A2E-21/HLA-A*02:01 monomer
Description: as §1

Bio-P19 member A2E-4 = target: T11, Bio-P19 member A2E-4 (chain 2 carries a C-terminal BirA substrate peptide (BSP), enzymatically biotinylated; the BSP letters are not given in the patent and are left out); assay: phage ELISA, streptavidin plate, anti-M13-HRP
T11 construct: also called biotinylated control peptide A2E-4/HLA-A*02:01 monomer
Description: as §1

Bio-P19 member A2E-5 = target: T12, Bio-P19 member A2E-5 (chain 2 carries a C-terminal BirA substrate peptide (BSP), enzymatically biotinylated; the BSP letters are not given in the patent and are left out); assay: phage ELISA, streptavidin plate, anti-M13-HRP
T12 construct: also called biotinylated control peptide A2E-5/HLA-A*02:01 monomer
Description: as §1

Bio-P19 member A2E-6 = target: T13, Bio-P19 member A2E-6 (chain 2 carries a C-terminal BirA substrate peptide (BSP), enzymatically biotinylated; the BSP letters are not given in the patent and are left out); assay: phage ELISA, streptavidin plate, anti-M13-HRP
T13 construct: also called biotinylated control peptide A2E-6/HLA-A*02:01 monomer
Description: as §1

Bio-P19 member A2E-7 = target: T14, Bio-P19 member A2E-7 (chain 2 (heavy): C-terminal BirA substrate peptide, biotinylated there by BirA; tag letters not given, left out); assay: phage ELISA, streptavidin plate, anti-M13-HRP
T14 construct: also called biotinylated control peptide A2E-7/HLA-A*02:01 monomer; not shown: BirA substrate peptide (BSP) tag at the C-terminus of the heavy chain
Description: as §1

Bio-P19 member A2E-8 = target: T15, Bio-P19 member A2E-8 (chain 2 (heavy): C-terminal BirA substrate peptide, biotinylated there by BirA; tag letters not given, left out); assay: phage ELISA, streptavidin plate, anti-M13-HRP
T15 construct: also called biotinylated control peptide A2E-8/HLA-A*02:01 monomer; not shown: BirA substrate peptide (BSP) tag at the C-terminus of the heavy chain
Description: as §1

[1] = target: T16, PSA 146-154 peptide/HLA-A*02:01 complex on the cell surface (human); assay: flow cytometry, phage on T2 cells, anti-M13 + R-PE anti-mouse IgG
T16 construct: also called PSA146/HLA-A*02:01; PSA146-loaded T2 cells
Description: as §1

[2] = target: T17, HLA-A*02:01 on T2 cells with no peptide loaded (human); assay: as above
T17 construct: TAP-deficient T2 cells, no peptide loaded from outside; also called T2 cells without peptide loading
Description: as §1

Row | Binder | binding result (Bio-P19 member A2E-1) | binding result (Bio-P19 member A2E-10) | binding result (Bio-P19 member A2E-11) | binding result (Bio-P19 member A2E-13) | binding result (Bio-P19 member A2E-14) | binding result (Bio-P19 member A2E-15) | binding result (Bio-P19 member A2E-16) | binding result (Bio-P19 member A2E-17) | binding result (Bio-P19 member A2E-19) | binding result (Bio-P19 member A2E-21) | binding result (Bio-P19 member A2E-4) | binding result (Bio-P19 member A2E-5) | binding result (Bio-P19 member A2E-6) | binding result (Bio-P19 member A2E-7) | binding result (Bio-P19 member A2E-8) | binding result [1] | binding result [2]
1 | PSA146/HLA-A*02:01-specific scFv phage clone #10 (scFv, V domains shown) VH: QVQLVQSGAEVKKPGSSVKVSCKASGGTFSSYAISWVRQAPGQGLEWMGWINPNSGGTNYAQKFQGRVTMTRDTSISTAYMELSRLRSDDTAVYYCARWSYYYFQQFWSLDGWGQGTLVTVSS VL: not shown | no binding | no binding | no binding | no binding | no binding | no binding | no binding | no binding | no binding | no binding | no binding | no binding | no binding | no binding | no binding | binds | no binding
2 | PSA146/HLA-A*02:01-specific scFv phage clone #6 (scFv, V domains shown) VH: EVQLVQSGAEVKKPGASVKVSCKASGYTFTGYYIHWVRQAPGQGLEWMGGFDPEDGETIYAQKFQDRVTMTADTSTDTAYMELSSLRSEDTAVYYCARYGFDYWGQGTLVTVSS VL: QAVVTQEPSLTVSPGGTVTLTCASSTGAVTSGYYPNWFQLKPGQAPRALIYTTGKKHSWAPARFSGSLLGGKAALTLSGVQPEDEAEYYCLLYSGGVWVFGGGTKLTVLG | no binding | no binding | no binding | no binding | no binding | no binding | no binding | no binding | no binding | no binding | no binding | no binding | no binding | no binding | no binding | binds | no binding
3 | PSA146/HLA-A*02:01-specific scFv phage clone #2 (scFv, V domains shown) VH: EVQLVQSGAEVKRPGSSVKVSCKASGGTFSSYAINWVRRAPGQGLEWMGKIIPIPGITNYAQKFQDRVTFTADTSTNIAYMELSSLRSEDTAMYYCARSYKWGSSLVDAWGQGTLVTVSS VL: not shown | no binding | no binding | no binding | no binding | no binding | no binding | no binding | no binding | no binding | no binding | no binding | no binding | no binding | no binding | no binding | binds | no binding
4 | PSA146/HLA-A*02:01-specific scFv phage clone #3 (scFv, V domains shown) VH: not shown VL: QSVLTQPPSVSGAPGQRVTISCTGSSSNFGAGYDVHWYQQLPGAAPKLLIYGDTNRPSGVPDRFSGSKSGTSASLAITGLQAEDEADYYCQSYDTSLSGSVFGGGTKLTVLG | no binding | no binding | no binding | no binding | no binding | no binding | no binding | no binding | no binding | no binding | no binding | no binding | no binding | no binding | no binding | binds | no binding
5 | PSA146/HLA-A*02:01-specific scFv phage clone #5 (scFv, V domains shown) VH: QVQLVQSGAEVKKPGDSVKVSCKPSGYNFLNYGINWVRQAPGQGLEWMGWISTYTGNTNYAQKLQGRVTFTTDTSTSTAYMEMRSLRSDDTAVYYCARSSEYYTWDHWGQGTLVTVSS VL: QSVLTQPPSVSGAPGQRVTISCTGSSSNIGAGYDVHWYQQLPGTAPKLLIYGNSNRPSGVPDRFSGSKSGTSASLAITGLQAEDEADYYCQSYDSSLSGWVFGGGTKLTVLG | no binding | no binding | no binding | no binding | no binding | no binding | no binding | no binding | no binding | no binding | no binding | no binding | no binding | no binding | no binding | binds | no binding
6 | PSA146/HLA-A*02:01-specific scFv phage clone #9 (scFv, V domains shown) VH: QVQLVQSGAEVKKPGASVKVSCKASGYTFTSYGISWVRQAPGQGLEWMGWISAYNGNTNYAQKLQGRVTMTTDTSTSTAYMELRSLRSDDTAVYYCARSSQYYVWDSWGQGTLVTVSS VL: QSVVTQPPSVSGAPGQRVTISCTGSSSNFGAGYDVHWYQQLPGTAPKLLIYGNSNRPSGVPDRFSGSKSGTSASLAITGLQAEDEADYYCQSYDSSLSGWVFGGGTKLTVLG | no binding | no binding | no binding | no binding | no binding | no binding | no binding | no binding | no binding | no binding | no binding | no binding | no binding | no binding | no binding | binds | no binding
